Experimental data taken from patent US20120294874A1.

Tests used:
[1] = molecular target: HLA-A201/LMP-1 monomer (recombinant, membrane free, refolded complex of HLA-A201 heavy chain, beta-2 microglobulin and LMP-1 peptide …) (human; Epstein-Barr virus); assay: dose response curve, antigen at 120 ng/ml (method of Beatty et al.)
[2] = molecular target: HLA-A201/LMP-1 monomer (recombinant, membrane free, refolded complex of HLA-A201 heavy chain, beta-2 microglobulin and LMP-1 peptide …) (human; Epstein-Barr virus); assay: dose response curve, antigen at 60 ng/ml (method of Beatty et al.)
[3] = molecular target: HLA-A201/LMP-1 monomer (recombinant, membrane free, refolded complex of HLA-A201 heavy chain, beta-2 microglobulin and LMP-1 peptide …) (human; Epstein-Barr virus); assay: Kaff from OD50 at two antigen concentrations (Beatty et al.), [Ag] 15 ng/ml
[4] = molecular target: HLA-A201/LMP-1 monomer (recombinant, membrane free, refolded complex of HLA-A201 heavy chain, beta-2 microglobulin and LMP-1 peptide …) (human; Epstein-Barr virus); assay: Kaff from OD50 at two antigen concentrations (Beatty et al.), [Ag] 30 ng/ml
[5] = molecular target: HLA-A201/LMP-1 monomer (recombinant, membrane free, refolded complex of HLA-A201 heavy chain, beta-2 microglobulin and LMP-1 peptide …) (human; Epstein-Barr virus); assay: Kaff from OD50 at two antigen concentrations (Beatty et al.), [Ag] 120 ng/ml
[6] = molecular target: HLA-A201/LMP-1 monomer (recombinant, membrane free, refolded complex of HLA-A201 heavy chain, beta-2 microglobulin and LMP-1 peptide …) (human; Epstein-Barr virus); assay: dose response curve, antigen at 15 ng/ml (method of Beatty et al.)
[7] = molecular target: HLA-A201/LMP-1 monomer (recombinant, membrane free, refolded complex of HLA-A201 heavy chain, beta-2 microglobulin and LMP-1 peptide …) (human; Epstein-Barr virus); assay: Kaff from OD50 at two antigen concentrations (Beatty et al.), [Ag] 60 ng/ml
[8] = molecular target: HLA-A201/LMP-1 monomer (recombinant, membrane free, refolded complex of HLA-A201 heavy chain, beta-2 microglobulin and LMP-1 peptide …) (human; Epstein-Barr virus); assay: dose response curve, antigen at 30 ng/ml (method of Beatty et al.)
[9] = molecular target: HLA-A201/LMP-1 monomer (recombinant, membrane free, refolded complex of HLA-A201 heavy chain, beta-2 microglobulin and LMP-1 peptide …) (human; Epstein-Barr virus); assay: average Kaff (Beatty et al. method)

[mAb] at OD50 [1]: 26.1 ng/mL
[mAb] at OD50 [2]: 54.1 ng/mL
Ka [3]: 4.31e+08 M⁻¹
Ka [4]: 8.71e+08 M⁻¹
Ka [5]: 5.7e+08 M⁻¹
[mAb] at OD50 [6]: 121 ng/mL
Ka [7]: 1.01e+09 M⁻¹
[mAb] at OD50 [8]: 68.1 ng/mL
Ka [9]: 7.17e+08 M⁻¹
Substance: BB7.2 (pan anti-HLA-A2), commercially available anti-HLA-A2 antibody
